For one substance, Kd results are on record in PMC1559926.

In one assay the target is Caveolin-1 61-101 (UniProt Q03135). Description: given as Ka.
The next assay addresses Caveolin-1 135-178 (UniProt Q03135). Description: given as Ka.

Sequence of PrP, P04925 (P04925 23-230): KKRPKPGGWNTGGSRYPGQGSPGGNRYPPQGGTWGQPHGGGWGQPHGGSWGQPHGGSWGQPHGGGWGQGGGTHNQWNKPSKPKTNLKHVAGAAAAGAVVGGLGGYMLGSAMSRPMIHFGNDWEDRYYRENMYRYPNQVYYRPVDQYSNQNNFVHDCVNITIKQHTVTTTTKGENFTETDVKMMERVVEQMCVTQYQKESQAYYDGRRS
Sequence of Caveolin-1 61-101 (Q03135 61-101): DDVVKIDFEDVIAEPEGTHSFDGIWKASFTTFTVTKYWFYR
Sequence of Caveolin-1 135-178 (Q03135 135-178): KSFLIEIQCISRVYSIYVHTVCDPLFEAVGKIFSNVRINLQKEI

In the case of PrP, P04925, the Kd with Caveolin-1 61-101 and with Caveolin-1 135-178 was 1.18 nM each time.
